B1: G40 (ssDNA)
DNA: CGTACGGAATTCGCTAGCCGGGGTGGGAACCAGTCTTGCGCGGGTGACGGATCCGAGCTCCACGTG
B2: G35 (ssDNA)
DNA: CGTACGGAATTCGCTAGCGGTGACGGACGTGGGGTGCACGAAGGGAGGGGATCCGAGCTCCACGTG
B3: G55 (ssDNA)
DNA: CGTACGGAATTCGCTAGCGGACTGGAGTCTAGACCGGGTAGCTGTGGTGGATCCGAGCTCCACGTG
B4: G56 (ssDNA)
DNA: CGTACGGAATTCGCTAGCCCGTGGGGTAGCGGGGTCGTGTGATATGTGGATCCGAGCTCCACGTG
B5: G12 (ssDNA)
DNA: CGTACGGAATTCGCTAGCGGGTGCCGTGGCACGAGGCCGTGGTCCAGGGGATCCGAGCTCCACGTG
B6: G21 (ssDNA)
DNA: CGTACGGAATTCGCTAGCGGGTTCGGGACGGATGAACGTGATAGCTGAGGATCCGAGCTCCACGTG
B7: G26 (ssDNA)
DNA: CGTACGGAATTCGCTAGCATCGGGTGCAGAGTCGGAGCTAACGGCAGCGGATCCGAGCTCCACGTG
B8: G9 (ssDNA)
DNA: CGTACGGAATTCGCTAGCGGGGATGGGCCGCTCTGCAGAATGTTCTGTGGATCCGAGCTCCACGTG
B9: G27 (ssDNA)
DNA: CGTACGGAATTCGCTAGCGGGTGGAGTACGTGGGGGTCATCCTGTGTGGGATCCGAGCTCCACGTG
B10: G32 (ssDNA)
DNA: CGTACGGAATTCGCTAGCGTGGACTGGCGGAAATCTTGGTATGCCCATGGATCCGAGCTCCACGTG
B11: G39 (ssDNA)
DNA: CGTACGGAATTCGCTAGCGGTTGCCGTGCGGCGTGCGAGTTGGGCCTTGGATCCGAGCTCCACGTG
B12: G15 (ssDNA)
DNA: CGTACGGAATTCGCTAGCAGCCGGCGGGTGCTCAATGTTGGGGGTTGGGATCCGAGCTCCACGTG
B13: G54 (ssDNA)
DNA: CGTACGGAATTCGCTAGCGTGGCGGGGCGCGGGTGCCGGAGTTGATGTGGATCCGAGCTCCACGTG
B14: G37 (ssDNA)
DNA: CGTACGGAATTCGCTAGCGGGCGATGTGCGGAATGTGGGATTGCGGGTGGATCCGAGCTCCACGTG
B15: G4 (ssDNA)
DNA: CGTACGGAATTCGCTAGCGTGATGTGGGGGTACGCTCGTGGCAGGCTTGGATCCGAGCTCCACGTG

What follows are binders tested against T1, Nampt (nicotinamide phosphoribosyltransferase) (UniProt P43490 P43490:1-491) (assay: SPR; aptamer immobilized; same buffer pH 7.6). Conditions: tags: AdipoGen AG-40A-0031; chain copies: 2.
T1 sequence (P43490 whole entry, one chain of several): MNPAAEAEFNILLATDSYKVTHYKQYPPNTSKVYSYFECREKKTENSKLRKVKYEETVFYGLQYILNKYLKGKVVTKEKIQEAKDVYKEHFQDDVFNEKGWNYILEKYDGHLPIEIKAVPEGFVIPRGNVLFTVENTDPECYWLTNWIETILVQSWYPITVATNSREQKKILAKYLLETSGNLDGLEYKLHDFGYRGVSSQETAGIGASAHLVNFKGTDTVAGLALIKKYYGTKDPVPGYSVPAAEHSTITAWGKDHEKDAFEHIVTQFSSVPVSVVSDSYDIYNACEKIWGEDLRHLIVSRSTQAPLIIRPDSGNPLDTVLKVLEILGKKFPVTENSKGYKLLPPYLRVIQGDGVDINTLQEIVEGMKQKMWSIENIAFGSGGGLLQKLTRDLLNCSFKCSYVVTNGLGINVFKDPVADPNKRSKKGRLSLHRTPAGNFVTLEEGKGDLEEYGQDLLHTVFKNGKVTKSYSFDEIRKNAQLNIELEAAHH
Procedure: (§1) Aptamers G35, G40, and G55 had the highest specificity and binding force among the 15 kinds of aptamers specifically bound to Nampt and produced in Example 1. Binding of these aptamers with respect to Nampt was analyzed. The aptamers were immobilized onto a gold chip in the same manner as described above, and Nampt at various concentrations of 20 nM to 400 nM was reacted for 30 minutes in buffer solutions (100 mM NaCl, 2 mM MgCl₂, 5 mM KCl, 1 mM CaCl₂, and 20 mM Tris-Cl buffer solution containing 0.02% Tween 20, pH 7.6). In order to obtain a dissociation constant, each reaction level was plotted by a nonlinear regression method and a single site saturation ligand binding method with Graphpad Prism 5.0. In this case, the equation Y=Bₘₐₓ*X̂h/(Kd̂h+X̂h) was used (y represents a saturation degree, Bₘₐₓ represents a maximal binding site, Kd represents a dissociation constant, X represents non-bound Nampt, and h represents a hill slope constant).
With B1 the Kd was 114 nM. B2 was tested, and the Kd was 117 nM.

Each binder was assayed against T1, Nampt (nicotinamide …) (assay: SPR; aptamer immobilized; 100 mM NaCl, 2 mM MgCl2, 5 mM KCl, 1 mM CaCl2, 20 mM Tris, 0.02% Tween 20, pH 7.6). Conditions: tags: AdipoGen AG-40A-0031; chain copies: 2.
Procedure: as §1
Work on B3 yielded a Kd of 71.7 nM.

Each binder was assayed against T1, Nampt (nicotinamide …) (assay: SPR; 200 nM Nampt). Conditions: tags: AdipoGen AG-40A-0031; chain copies: 2.
Procedure: An experiment showing that 15 kinds of aptamers strongly bound to Nampt were not bound to other blood proteins but specifically bound to Nampt only was carried out by immobilizing aptamers onto a gold chip with a surface […] resonance device (SPR).
Firstly, a carboxyl group (—COOH) was formed on a surface of a gold chip with 50 mM of 3,3′-dithiodipropionic acid, and a self-assembly monolayer was formed with EDC/NHS. Then, streptavidin was immobilized thereon, and each aptamer bound to biotin was immobilized. Herein, 200 nM Nampt and the controls, i.e., RBP4, adiponectin, resistin, vaspin, and HAS, were reacted for 30 minutes in respective buffer solutions (100 mM NaCl, 2 mM MgCl₂, 5 mM KCl, 1 mM CaCl₂, and 20 mM Tris-Cl buffer solution containing 0.02% Tween 20, pH 7.6), and non-bound proteins were washed off with the same buffer solutions.
B4: binds. B5: binds. B6: binds. B7: binds. B8: binds. B9: binds. B10: binds. B11: binds. B12: binds. B13: binds. B14: binds. B15: binds.

Reference: patent US20140363808, “[…] […] METHOD BASED ON […] WITHOUT TARGET IMMOBILIZATION AND THE […] OBTAINED FROM THE METHOD” (KOREA UNIVERSITY RESEARCH AND BUSINESS FOUNDATION, published 2014)
